Key:
[1] = target: cyclin A (Homo sapiens) (UniProt P20248); conditions: cited from earlier work
[2] = target: Cdk2 (Homo sapiens) (UniProt P24941); conditions: cited from earlier work
[3] = target: Cdk2/cyclin A complex (full length human Cdk2 with truncated human cyclin A, residues 173–432) (human) (UniProt P24941); test: ITC

Sequence of cyclin A (Homo sapiens) (P20248 whole entry): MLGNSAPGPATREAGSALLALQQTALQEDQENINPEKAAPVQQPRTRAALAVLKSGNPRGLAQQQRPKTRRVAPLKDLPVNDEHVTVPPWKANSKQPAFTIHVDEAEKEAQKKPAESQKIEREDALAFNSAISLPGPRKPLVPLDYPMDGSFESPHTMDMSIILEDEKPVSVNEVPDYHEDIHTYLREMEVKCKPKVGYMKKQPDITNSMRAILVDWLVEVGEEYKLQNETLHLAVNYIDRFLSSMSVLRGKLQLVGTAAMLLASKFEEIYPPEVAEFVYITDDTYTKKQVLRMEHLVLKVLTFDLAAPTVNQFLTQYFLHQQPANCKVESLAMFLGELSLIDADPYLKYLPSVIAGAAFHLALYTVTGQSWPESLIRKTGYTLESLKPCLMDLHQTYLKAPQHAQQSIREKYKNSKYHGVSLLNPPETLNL

For p27 D1 (from UniProt P46527), the Kd [1] is given as 25 nM.

For p27 D2 (from UniProt P46527), the Kd [2] is given as 70 nM.

For “sub-domain D1 of p21 (domain or fragment)”, the Kd [3] was 61 nM.

From PMC3124363
